The record followed here is patent US9439886B2, “Methods for producing crosslinked flavonoid hydrogels” (Agency for Science, Technology and Research, priority 2009, dated 2016).

The nature of series [1]: H2O2 production by HA-EGCG (PeroXOquant peroxide assay). As to conditions: HA-EGCG 10 mg/ml; pH 7.4; over 35 min; increased with time. It is filed as physicochemical. As to the method:
Measurement of H2O2 Production by HA-EGCG: The amount of H2O2 produced by HA-EGCG was determined using the PeroXOquant Quantitative Peroxide Assay Kits from Pierce. In order to determine the amount of H2O2 produced during the dissolution process, a sample of the dissolved conjugates was diluted 20-fold with distilled water, 20 μl of which was added to the well of a 96-wellplate follow by the addition of 200 μl working reagent prepared according to manufacturer's protocol. The HA-EGCG solution was then diluted to 10 mg/ml with phosphate buffer. The final ionic strength of the mixture was 0.15 M and pH was 7.4. For the next 35 min, 20 μl of the HA-EGCG solution was drawn out every 5 min and diluted 10-fold with distilled water. 20 μl of the diluted sample was then added to a well of a 96-wellplate followed by 200 μl of working reagents. After the last sample was collected and the working reagent added, the plate was incubated for another 1 h before reading the absorbance at 595 nm. The amount of H2O2 produced by HA-EGCG was determined by comparing to a set of H2O2 standards.

Series [2] can be described thus: Gelation time of HA-EGCG hydrogels (vial tilting). Type of series: physicochemical. As to conditions: pH 7.4, no exogenous H2O2, HA-EGCG 17.5 mg/ml. As to the method: Preparation of HA-EGCG solution: For all experiments described below, HA-EGCG stock solution was prepared by dissolving the conjugates in distilled water at 25 mg/ml at room temperature using a magnetic stirrer. Dissolution took about 25 min and the pH of the solution was 2.5. Then the pH was brought to 6 using 2 M NaOH before diluting with sodium phosphate buffer (final ionic strength: 0.15 M) to the desired concentration and pH, depending on the gelation condition.
Formation of HA-EGCG hydrogels through air autoxidation: To form HA-EGCG hydrogel by air autoxidation, HA-EGCG solution was diluted to 17.5 mg/ml by adding sodium phosphate buffer with pH between 6.0 to 8. To determine the gelation time, glass vials containing 0.25 ml of HA-EGCG were tilted frequently at 90 degrees for 5 sec, the time at which no obvious flowing motion could be observed was recorded as the gelation time.
Acceleration of HA-EGCG hydrogel formation through air autoxidation by adding catalase: Stock solution of catalase was prepared by dissolving the enzyme in distilled water at 22.5 kU/ml. […] The gelation time was determined as described above.
Formation of HA-EGCG hydrogel by HRP-mediated crosslinking reaction: HRP stock solution was prepared in water at 6.25 U/ml. […] The gelation time was determined as described above.

As to “hyaluronic acid-epigallocatechin gallate [HA-EGCG]”, in series [1], the “amount of H2O2 generated during air-autoxidation” value is on record as “micromolar range”. In addition, the gelation time stood at 50 min in series [2] (HRP 0 unit/ml) and 9 min in series [2] (HRP 0.125 unit/ml).
